Measurements taken from patent US20250115669A1, “FGFR1/KLB Targeting Agonistic Antigen-Binding Proteins and Conjugates Thereof with GLP-1R Agonistic Peptides” (SANOFI, priority 2020, published 2025).
Marks after values point to notes of the source that are not given here.

What was measured:
[1] = molecular target: T1, human beta-Klotho (Homo sapiens, UniProt Q86Z14); assay: SPR analysis of the active fraction of stressed antibodies; assay type: binding; details: 21 days
T1 sequence (Q86Z14 1-1044): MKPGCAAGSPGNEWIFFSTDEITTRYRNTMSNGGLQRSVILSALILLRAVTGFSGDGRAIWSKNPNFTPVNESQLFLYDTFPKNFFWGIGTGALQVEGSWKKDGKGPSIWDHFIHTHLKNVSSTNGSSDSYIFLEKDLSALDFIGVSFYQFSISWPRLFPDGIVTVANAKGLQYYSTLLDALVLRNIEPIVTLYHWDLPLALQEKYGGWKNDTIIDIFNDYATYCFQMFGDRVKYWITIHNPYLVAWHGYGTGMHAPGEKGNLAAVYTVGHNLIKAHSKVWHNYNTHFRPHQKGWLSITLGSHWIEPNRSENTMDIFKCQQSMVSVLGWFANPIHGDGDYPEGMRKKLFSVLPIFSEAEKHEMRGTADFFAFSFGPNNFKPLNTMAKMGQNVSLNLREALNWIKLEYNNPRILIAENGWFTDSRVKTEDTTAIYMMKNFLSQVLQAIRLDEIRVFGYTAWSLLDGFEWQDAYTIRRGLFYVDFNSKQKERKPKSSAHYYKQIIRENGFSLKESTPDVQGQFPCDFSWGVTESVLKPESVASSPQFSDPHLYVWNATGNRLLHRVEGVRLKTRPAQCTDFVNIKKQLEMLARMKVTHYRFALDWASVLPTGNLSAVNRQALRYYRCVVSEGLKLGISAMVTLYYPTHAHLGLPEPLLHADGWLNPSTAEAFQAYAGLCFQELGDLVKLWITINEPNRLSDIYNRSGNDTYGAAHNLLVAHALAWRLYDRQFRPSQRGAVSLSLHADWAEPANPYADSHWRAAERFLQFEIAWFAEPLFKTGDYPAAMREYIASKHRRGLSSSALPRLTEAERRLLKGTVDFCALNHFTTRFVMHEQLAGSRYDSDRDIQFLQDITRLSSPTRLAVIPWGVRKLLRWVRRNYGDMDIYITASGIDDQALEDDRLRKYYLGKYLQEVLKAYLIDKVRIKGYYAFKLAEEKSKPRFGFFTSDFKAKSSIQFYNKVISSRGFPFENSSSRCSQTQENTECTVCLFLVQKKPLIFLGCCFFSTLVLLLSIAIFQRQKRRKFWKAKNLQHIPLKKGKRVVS
Description: Analysis of the active fraction of stressed antibodies was performed by SPR using the same Fc capture assay set up as described above for the affinity determination. In this case the association and dissociation times for human beta-Klotho were set to 240 sec and 300 sec, respectively. The active fraction of the samples was calculated as the ratio of binding signal for human beta-Klotho and the Fc capture signal of the antibody, normalized to the active fraction of the unstressed control samples. Mean values from three experiments were calculated.

[2] = In vivo PK in transgenic humanized FcRn mice (Tg32); details: 0.3 mg/kg single IV, plasma; for t½: noncompartmental analysis
Description: In vivo PK studies were conducted in transgenic humanized FcRn mice (Tg32). For these studies, no GLP compliance was claimed.

[3] = molecular target: T2, FGFR1c and co-receptor beta-Klotho (KLB) (Homo sapiens, UniProt P11362+Q86Z14); assay: Luciferase reporter gene assay (iLite FGF21 Assay Ready Cells), FGF21-like signaling; assay type: cell-based
T2 construct: host or cells: iLite FGF21 Assay Ready Cells (HEK293)
T2 sequence (P11362 22-820 isoform P11362-2 limits assumed, one chain of several): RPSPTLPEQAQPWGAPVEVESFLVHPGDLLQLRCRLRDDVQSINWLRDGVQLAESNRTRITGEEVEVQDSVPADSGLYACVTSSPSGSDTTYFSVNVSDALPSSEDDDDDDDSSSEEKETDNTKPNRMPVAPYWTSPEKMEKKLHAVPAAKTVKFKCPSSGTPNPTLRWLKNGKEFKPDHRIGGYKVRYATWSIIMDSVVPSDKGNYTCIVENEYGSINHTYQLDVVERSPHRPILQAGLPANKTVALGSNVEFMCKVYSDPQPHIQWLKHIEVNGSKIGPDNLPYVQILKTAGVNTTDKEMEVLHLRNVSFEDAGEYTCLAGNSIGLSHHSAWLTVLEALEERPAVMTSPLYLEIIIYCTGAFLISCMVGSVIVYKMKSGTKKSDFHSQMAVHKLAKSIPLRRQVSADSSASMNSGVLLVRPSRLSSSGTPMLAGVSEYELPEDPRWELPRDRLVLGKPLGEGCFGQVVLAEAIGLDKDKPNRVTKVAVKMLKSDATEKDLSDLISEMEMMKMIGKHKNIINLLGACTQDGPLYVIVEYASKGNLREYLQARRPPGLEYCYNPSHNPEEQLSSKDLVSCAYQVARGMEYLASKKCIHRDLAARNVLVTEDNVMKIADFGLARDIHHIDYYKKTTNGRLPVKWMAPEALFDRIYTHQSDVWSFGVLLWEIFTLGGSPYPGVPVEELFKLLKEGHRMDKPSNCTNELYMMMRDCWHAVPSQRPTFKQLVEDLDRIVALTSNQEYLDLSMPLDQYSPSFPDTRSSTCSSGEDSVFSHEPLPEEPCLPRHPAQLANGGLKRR

[4] = In vivo PK in cynomolgus monkeys, single intravenous dose; set-up: species or system Cynomolgus monkey (Macaca fascicularis); details: Macaca fascicularis, plasma
Description: Naive cynomolgus monkeys received a single intravenous dose of mAb according to the following table:
In all investigations, the animals were evaluated twice daily for post-dose mortality/moribundity and cage side clinical observations were carried out after each study blood collection time. Studies were Non-GLP, nevertheless, these studies have been conducted in a GLP compliant facility using practices detailed in Standard Operating Procedures consistent with the principles of GLP (Test facility: Sanofi and Charles River Laboratories). Plasma concentrations and pharmacokinetic parameters of the tested antibodies were investigated after single intravenous administration.

## Ab0430: IgG1 NNAS; 16H7 VL (N25S, D49E, D50E, D91E, N93E); 16H7 VH (M34V, I83T, D109E); HC SEQ ID NO: 43, LC SEQ ID NO: 50
[1]; pH 5, 40° C.
  SPR rel. active fraction: 94%
[1]; pH 6, 40° C.
  SPR rel. active fraction: 92%
[1]; pH 8, 40° C.
  SPR rel. active fraction: 75%
[2]
  t½: 15.7 days

## Ab0331: IgG4 PE; 16H7 VL (N25S, D49S, D50E, D91E, N93E); 16H7 VH (M34V, I83T, D109E); HC SEQ ID NO: 38, LC SEQ ID NO: 45
[3]
  cellular activity in the Luciferase gene reporter assay compared to 16H7: comparable cellular activity
[1]; pH 5, 40° C.
  SPR rel. active fraction: 97%
[1]; pH 6, 40° C.
  SPR rel. active fraction: 91%
[1]; pH 8, 40° C.
  SPR rel. active fraction: 78%
[2]
  t½: 14.9 days
[4]; 3.0 mg/kg single IV
  t½: 10.8 days

## Ab0428: IgG1 NNAS; 16H7 VL (N25S, D49S, D50E, D91E, N93E); 16H7 VH (M34V, I83T, D109E); HC SEQ ID NO: 41, LC SEQ ID NO: 48
[1]; pH 5, 40° C.
  SPR rel. active fraction: 94%
[1]; pH 6, 40° C.
  SPR rel. active fraction: 93%
[1]; pH 8, 40° C.
  SPR rel. active fraction: 79%
[2]
  t½: 13.8 days

## Ab0351: IgG4 PE; 16H7 VL (N25S, D49E, D50E, D91E, N93E); 16H7 VH (M34V, I83T, D109E); HC SEQ ID NO: 40, LC SEQ ID NO: 47
[3]
  cellular activity in the Luciferase gene reporter assay compared to 16H7: comparable cellular activity
[1]; pH 5, 40° C.
  SPR rel. active fraction: 95%
[1]; pH 6, 40° C.
  SPR rel. active fraction: 92%
[1]; pH 8, 40° C.
  SPR rel. active fraction: 75%
[2]
  t½: 14.2 days

## Ab0429: IgG1 NNAS; 16H7 VL (N25S, D49S, D50A, D91E, N93E); 16H7 VH (M34V, I83T, D109E); HC SEQ ID NO: 42, LC SEQ ID NO: 49
[1]; pH 5, 40° C.
  SPR rel. active fraction: 94%
[1]; pH 6, 40° C.
  SPR rel. active fraction: 92%
[1]; pH 8, 40° C.
  SPR rel. active fraction: 77%
[2]
  t½: 13.9 days
[4]; 3.0 mg/kg single IV
  t½: 7.62 days

## 16H7: anti FGFR1c/KLB monoclonal antibody of WO 2011/071783, IgG2 backbone; HC SEQ ID NO: 1, LC SEQ ID NO: 2 [Ab 16H7]
[3]; monovalent Fab versus bivalent antibody
  FGF21-like activity in Luciferase gene reporter assay (in words): shows FGF21-like activity
[2]
  t½: 13 days
[4]; 0.1 mg/kg single IV
  t½: 6.04 days
[4]; 0.3 mg/kg single IV
  t½: 6.29 days
[4]; 1.0 mg/kg single IV
  t½: 11.2 days

## Ab0335: IgG4 PE; 16H7 VL (N25S, D49S, D50A, D91E, N93E); 16H7 VH (M34V, I83T, D109E); HC SEQ ID NO: 39, LC SEQ ID NO: 46
[3]
  cellular activity in the Luciferase gene reporter assay compared to 16H7: comparable cellular activity
[1]; pH 5, 40° C.
  SPR rel. active fraction: 93%
[1]; pH 6, 40° C.
  SPR rel. active fraction: 92%
[1]; pH 8, 40° C.
  SPR rel. active fraction: 73%
[2]; compartment model
  t½ calculated with compartment model: 300* h
[4]; 3.0 mg/kg single IV
  t½: 12.8 days
